# B1: TAFIa (Homo sapiens) (protein)
# chain: ASASYYEQYHSLNEIYSWIEFITERHPDMLTKIHIGSSFEKYPLYVLKVSGKEQAAKNAIWIDCGIHAREWISPAFCLWFIGHITQFYGIIGQYTNLLRLVDFYVMPVVNVDGYDYSWKKNRMWRKNRSFYANNHCIGTDLNRNFASKHWCEEGASSSSCSETYCGLYPESEPEVKAVASFLRRNINQIKAYISMHSYSQHIVFPYSYTRSKSKDHEELSLVASEAVRAIEKISKNTRYTHGHGSETLYLAPGGGDDWIYDLGIKYSFTIELRDTGTYGFLLPERYIKPTCREAFAAVSKIAWHVIRNV
# B2: CPB (Homo sapiens) (protein)
# chain: ATGHSYEKYNKWETIEAWTQQVATENPALISRSVIGTTFEGRAIYLLKVGKAGQNKPAIFMDCGFHAREWISPAFCQWFVREAVRTYGREIQVTELLDKLDFYVLPVLNIDGYIYTWTKSRFWRKTRSTHTGSSCIGTDPNRNFDAGWCEIGASRNPCDETYCGPAAESEKETKALADFIRNKLSSIKAYLTIHSYSQMMIYPYSYAYKLGENNAELNALAKATVKELASLHGTKYTYGPGATTIYPAAGGSDDWAYDQGIRYSFTFELRDTGRYGFLLPESQIRATCEETFLAIKYVASYVLEHLY
# B3: CPM (Homo sapiens) (protein)
# chain: LDFNYHRQEGMEAFLKTVAQNYSSVTHLHSIGKSVKGRNLWVLVVGRFPKEHRIGIPEFKYVANMHGDETVGRELLLHLIDYLVTSDGKDPEITNLINSTRIHIMPSMNPDGFEAVKKPDCYYSIGRENYNQYDLNRNFPDAFEYNNVSRQPETVAVMKWLKTETFVLSANLHGGALVASYPFDNGVQATGALYSRSLTPDDDVFQYLAHTYASRNPNMKKGDECKNKMNFPNGVTNGYSWYPLQGGMQDYNYIWAQCFEITLELSCCKYPREEKLPSFWNNNKASLIEYIKQVHLGVKGQVFDQNGNPLPNVIVEVQDRKHICPYRTNKYGEYYLLLLPGSYIINVTVPGHDPHITKVIIPEKSQNFSALKKDILLPFQGQLDSIPVSNPSCPMIPLYRNLPDHS
# Substrate: CSCC[C@H](NC(=O)[C@H](CC(C)C)NC(=O)CNC(=O)CCCCCNC(=O)CCCCCNC(=O)CCCC[C@@H]1SC[C@@H]2NC(=O)N[C@@H]21)C(=O)N[C@H](C(=O)NCC(=O)NCC(=O)N[C@H](C(=O)N[C@H](C(=O)N[C@@H](CCCNC(=N)N)C(=O)O)C(C)C)C(C)C)C(C)C
# Test: purified protein, by the assay type
# Conditions: other: room temperature
# Description: A typical assay (75 μL) contained each studied carboxypeptidase and selected inhibitors (in 5 μL DMSO) in HBSP buffer in 96-well round bottom microtiter plates (Costar 3365 plates). Enzyme and compound were preincubated for 15–30 minutes at room temperature. […] The final substrate concentration was 15 to 50 nM. The amount of carboxypeptidase activity was titrated to result in 40,000–50,000 electrochemiluminescence counts (typically 0.02–0.1 nM, 0.01 nM, 5 nM, and 0.15–0.65 nM. for TAFIa, CPB, CPN and CPM, respectively). […] Ruthenium-labeled G2-10 (25 μL of 0.063 μg/mL) and streptavidin magnetic beads (25 μL of 0.2 mg/mL, Dynabeads M-280) were added to the quenched solution and shaken at 300 rpm for >1 hr. G2-10 antibody and beads were prepared in a BSA diluent containing 150 mM phosphate, pH 7.8, 150 mM NaCl, 3% (w/v) BSA (protease free fraction V) and 0.05% NaN3. The volume was brought to 250 μL with HBSP and read on an Igen 96-well electrochemiluminescence plate reader (M8 Analyzer) at 620 nm. […]
# All measurements were performed in at least duplicates and the inhibition constants (Ki) were determined by the equation below wherein Vo and Vi are activity in the absence and presence of inhibitors, respectively. […]
# Hydrolysis of substrate was measured in HBSP (pH 7.4) for TAFIa, CPB, CPM, and CPM. […]
Protein,Km (HBSP pH 7.4) [µM],Km [µM]
B1,8,–
B2,12,–
B3,–,38

# From patent US7176008B2, “Process for producing activated thrombin-activatable fibrinolysis inhibitor” (Merck & Co., Inc., priority 2002, dated 2007)
